Biological target: GST–CDK2/His–CyclinA complex (human | bovine, UniProt P24941 1-298; P30274 1-430)
Assay: co-IP

Sequence of GST–CDK2/His–CyclinA complex (P30274 whole entry, one chain of several): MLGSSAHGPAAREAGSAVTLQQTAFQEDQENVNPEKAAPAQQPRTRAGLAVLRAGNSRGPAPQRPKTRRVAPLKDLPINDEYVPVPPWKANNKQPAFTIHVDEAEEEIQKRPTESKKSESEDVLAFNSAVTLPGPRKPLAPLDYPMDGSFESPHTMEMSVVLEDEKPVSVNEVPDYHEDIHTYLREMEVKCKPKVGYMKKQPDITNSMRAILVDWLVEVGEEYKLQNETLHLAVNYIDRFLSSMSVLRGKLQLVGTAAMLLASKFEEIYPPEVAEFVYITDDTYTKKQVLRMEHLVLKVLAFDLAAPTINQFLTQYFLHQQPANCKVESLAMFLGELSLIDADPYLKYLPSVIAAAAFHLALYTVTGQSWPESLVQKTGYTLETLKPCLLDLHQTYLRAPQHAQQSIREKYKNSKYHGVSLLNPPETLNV

B1: GST–p57 (mouse, wild type) phosphorylated in vitro by activated p38 SAPK (natural protein)
chain: MERLASSDTFPVIARSSACRSLFGPVDHEELGRELRMRLAELNAEDQNRWDFNFQQDVPLRGPGRLQWMEVDSESVPAFYRETVQVGRCRLQLGPRPPPVAVAVIPRSGPPAGEAPDGLEEAPEQPPSAPASAVVAEPTPPATPAPASDLTSDPIPEVTLVATSDPTPDPIPDANPDVATRDGEEQVPEQVSEQGEESGAEPGDELGTEPVSEQGEEQGAEPVEEKDEEPEEEQGAEPVEEQGAEPVEEQNGEPVEEQDENQEQRGQELKDQPLSGIPGRPAPGTAAANANDFFAKRKRTAQENKASNDVPPGCPSPNVAPGVGAVEQTPRKRLR
modifications: phosphothreonine at T143 (phosphorylated in vitro by activated GST–p38 SAPK)
With B1 the “fold increase of binding against non-phosphorylated GST–p57” value was ~4 fold.

Reference: publication PMC3395087 (The EMBO Journal, 2012)
